Where two headings read alike, the source gives them in different places. Blank lines part the entries; values can stand above or below the binder they belong to.
Legend:
[1] = molecular target: T1, cTnI质控品重组抗原 (human, UniProt P19429 1-210, limits assumed); assay: BLI, antibody captured on AMC sensor, cTnI recombinant protein in solution
T1 construct: 人cTnI蛋白); also called cTnI质控品重组蛋白(公司自产重组抗原); 心肌肌钙蛋白I

[2] = molecular target: T1, cTnI质控品重组抗原; assay: as above; remark: listed apart in the source

T1 sequence (P19429 whole entry): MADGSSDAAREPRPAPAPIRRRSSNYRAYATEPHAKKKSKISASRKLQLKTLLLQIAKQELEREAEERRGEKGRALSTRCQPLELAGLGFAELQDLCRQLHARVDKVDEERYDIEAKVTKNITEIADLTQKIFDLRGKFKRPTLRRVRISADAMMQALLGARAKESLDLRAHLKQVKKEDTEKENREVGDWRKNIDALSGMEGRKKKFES

Kd [1]: 33.5 nM
koff [1]: 0.00018 s⁻¹
kon [1]: 5360 M⁻¹ s⁻¹
Kd [2]: 33.5 nM
koff [2]: 0.00018 s⁻¹
kon [2]: 5360 M⁻¹ s⁻¹
B1: Anti-cTnI 3C7 重组抗体 (WT) (antibody, V domains shown)
VH: EVKLDETGGGLVQPGRPMKLSCIASGATFSGYWMQWVRQSPEKGLEWVAQLRNGPYDFDTFYSDSVKDRFTISRDDSKSVYLQMNNLRAEDMGIYYCTPHFVHWGQGTLVTVSA
VL: DIVMTQSPSSLSVSEGEKVTLRCKSSNSLFNSGNQQNYLAWYQQKPGQPPKLLIYGPSTREFGVPDRFTGSGSGTDFTLISNVQEDLAVYYCQTDRTSAYTFGGGTKLEIK

Kd [1]: 80.6 nM
koff [1]: 0.000533 s⁻¹
kon [1]: 6610 M⁻¹ s⁻¹
B2: WT 1-5 (antibody, V domains shown)
VH: QVQLQQSGTELAKPGASVKFSCKASDYTFSSYWMYWIKQRPGQGLEWIGYLNPSTGHTEYNQKFKDKATLTADKSSSTAYMQLNSLTSEDSAVYYCARKYWGPFAMDYWGQGTSVTVSS
VL: EIFLTQSPAIMSASPGEKVTMTCSASSSVSYAHWYQQKSGTSPKRWIYDSSKIASGIPVRFSGSGSGTSYSLTISSMEAEDAATYYCQNWSTNPYTFGGGTKLEIKR

Kd [1]: 47.8 nM
koff [1]: 0.000308 s⁻¹
kon [1]: 6450 M⁻¹ s⁻¹
B3: WT 1-22 (antibody, V domains shown)
VH: EVQLQQSGPELVKPGASVKMSCKASGYSFTLYVLHWVKQKPGQGLEWIGYIYPYIDGTRYNEKFKGKATLTVDKSSSTAFMELSSLTSEDSAVYYCARTGYGNYGLAWLAYWGQGTLVTVSA
VL: QAVVIQESALTTSPGETVTLTCRSSSGAVTTSQYANWVQEKPDHLFTGLIGGSNNRVPGVPARFSGSLIGDKAALTITGAQTEDEAIYFCAIVYSNNWVFGGGTKLTVLG

Source: patent publication CN111018982A (DONGGUAN PENGZHI BIOTECHNOLOGY CO LTD, dated 2020)
